Assay results reported in article PMC10654033.

Biological target: SpnA (S. pyogenes nuclease A), recombinant, residues Val25 to Leu876 (S. pyogenes) (UniProt Q9A0J7)
Experiment: SPR; Biacore T100; SpnA immobilized on a CM5 chip by amino coupling (7247 resonance units); IdeS injected at 10, 20, 40, 80 and 160 μM, 10 μl/min; 100 mM Hepes, 150 mM NaCl, 0.05% surfactant P20, pH 7.4; 1:1 Langmuir binding model

Substance: IdeS (immunoglobulin G-degrading enzyme of Streptococcus pyogenes) (from UniProt Q7DAM2 1-339)
- Kd: 53.3 µM
